Results on one molecule are retold here after article PMC9645763, “CK2-mediated phosphorylation of SUZ12 promotes PRC2 function by stabilizing enzyme active site” (Nature Communications, 2022).

The assay concerns the target T1, EZH1 of the truncated minimal complex used for crystallization (human, UniProt Q92800 1-187; Q92800 230-491; Q92800 497-747, residues 353–413 of EZH1 were deleted).
T1 construct: human EZH1, residues 1-187; linker that replaces residues 188–229 of EZH1; human EZH1, residues 230-491 with 353–413 deleted; linker that replaces residues 492–496 of EZH1; human EZH1, residues 497-747; In the crystal joined on one chain with m3 through an LVPRGS linker; source: S. cerevisiae CB010, purified (IgG-sepharose, TEV cleavage, Superdex 200); not shown: His6, N-terminal, …
Description: crystal structure; truncated minimal EZH1–EED–SUZ12(VEFS) complex at 10 mg/ml pre-incubated with 0.5 mM H3K27M peptide, 0.5 mM H3K27me3 peptide and 1 mM SAM; 10% PEG3350, 100 mM ammonium sulfate, 50 mM HEPES pH 6.8; 3.0 Å. The note with it: both partners purified.

T1 sequence (Q92800 other isoform, or with tags, fused parts or gaps with the stated changes): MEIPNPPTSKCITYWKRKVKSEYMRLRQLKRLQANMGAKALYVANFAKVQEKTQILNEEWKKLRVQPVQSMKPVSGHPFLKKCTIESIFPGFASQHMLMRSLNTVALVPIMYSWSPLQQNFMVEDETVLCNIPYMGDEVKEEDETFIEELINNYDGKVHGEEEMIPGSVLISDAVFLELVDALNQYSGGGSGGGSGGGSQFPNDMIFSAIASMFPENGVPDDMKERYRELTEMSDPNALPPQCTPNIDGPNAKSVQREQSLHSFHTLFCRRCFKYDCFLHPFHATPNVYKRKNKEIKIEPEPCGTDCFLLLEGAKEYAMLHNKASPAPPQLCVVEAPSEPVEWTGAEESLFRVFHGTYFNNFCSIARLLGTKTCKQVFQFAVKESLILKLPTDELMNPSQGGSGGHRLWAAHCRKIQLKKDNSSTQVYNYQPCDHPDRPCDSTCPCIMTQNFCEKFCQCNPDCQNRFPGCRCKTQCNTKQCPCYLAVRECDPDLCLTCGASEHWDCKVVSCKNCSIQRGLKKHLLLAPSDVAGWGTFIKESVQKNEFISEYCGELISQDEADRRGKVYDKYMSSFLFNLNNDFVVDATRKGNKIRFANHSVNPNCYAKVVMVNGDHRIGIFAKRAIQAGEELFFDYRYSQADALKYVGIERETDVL

B1: EED of the truncated minimal complex used for crystallization (domain or fragment)
chain: not shown
notes: human EED, residues 1–77 replaced by a StrepII tag; source: S. cerevisiae CB010, co-expressed, purified with the complex (IgG-sepharose, TEV cleavage, Superdex 200); not shown: StrepII, N-terminal, kept
As for B1, the binding result is on record as “binds”.
